# Source: US20250361525, “AAV VECTORS FOR GENE EDITING” (Scribe Therapeutics Inc., published 2025)
# Numbering of substitutions follows the chain as printed.
# B1: sgRNA 2.7.37 ; 7.37 target (ssRNA ; dsDNA)
# RNA: UACUGGCGCUUUUAUCUCAUUACUUUGAGAGCCAUCACCAGCGACUAUGUCGUAUGGGUAAAGCGCUUAUUUAUCGGAGAGAAAUCCGAUAAAUAAGAAGCAUCAAAGGGCCGAGAUGUCUCGCUCCG
# DNA 1: TGAAGCTGACAGCATTCGGGCCGAGATGTCTCGCTCCGTGGCCTTAGCTGTGCTCGCGCT
# DNA 2: AGCGCGAGCACAGCTAAGGCCACGGAGCGAGACATCTCGGCCCGAATGCTGTCAGCTTCA
# modifications: 5' amino modifier C6
# B2: sgRNA 316.7.37 ; 7.37 target (ssRNA ; dsDNA)
# RNA: ACUGGCGCUUCUAUCUGAUUACUCUGAGCGCCAUCACCAGCGACUAUGUCGUAGUGGGUAAAGCUCCCUCUUCGGAGGGAGCAUCAGAGGGCCGAGAUGUCUCGCUCCG
# DNA 1: B1 DNA 1
# DNA 2: B1 DNA 2
# modifications: 5' amino modifier C6
# B3: sgRNA 235.7.37 ; 7.37 target (ssRNA ; dsDNA)
# RNA: ACUGGCGCUUCUAUCUGAUUACUCUGAGCGCCAUCACCAGCGACUAUGUCGUAGUGGGUAAAGCCGCUUACGGACUUCGGUCCGUAAGAGGCAUCAGAGGGCCGAGAUGUCUCGCUCCG
# DNA 1: B1 DNA 1
# DNA 2: B1 DNA 2
# modifications: 5' amino modifier C6
# B4: sgRNA 174.7.37 ; 7.37 target (ssRNA ; dsDNA)
# RNA: B2 RNA with C11U, C24U, C29A, G87A
# DNA 1: B1 DNA 1
# DNA 2: B1 DNA 2
# modifications: 5' amino modifier C6
# B5: sgRNA 2.7.9 ; 7.9 target (ssRNA ; dsDNA)
# RNA: UACUGGCGCUUUUAUCUCAUUACUUUGAGAGCCAUCACCAGCGACUAUGUCGUAUGGGUAAAGCGCUUAUUUAUCGGAGAGAAAUCCGAUAAAUAAGAAGCAUCAAAGGUGUAGUACAAGAGAUAGAA
# DNA 1: TTTCAGTGGGGGTGAATTCAGTGTAGTACAAGAGATAGAAAGACCAGTCCTTGCTGAAAG
# DNA 2: CTTTCAGCAAGGACTGGTCTTTCTATCTCTTGTACTACACTGAATTCACCCCCACTGAAA
# modifications: 5' amino modifier C6
# B6: sgRNA 174.7.9 ; 7.9 target (ssRNA ; dsDNA)
# RNA: ACUGGCGCUUUUAUCUGAUUACUUUGAGAGCCAUCACCAGCGACUAUGUCGUAGUGGGUAAAGCUCCCUCUUCGGAGGGAGCAUCAAAGGUGUAGUACAAGAGAUAGAA
# DNA 1: B5 DNA 1
# DNA 2: B5 DNA 2
# modifications: 5' amino modifier C6
# B7: sgRNA 235.7.9 ; 7.9 target (ssRNA ; dsDNA)
# RNA: ACUGGCGCUUCUAUCUGAUUACUCUGAGCGCCAUCACCAGCGACUAUGUCGUAGUGGGUAAAGCCGCUUACGGACUUCGGUCCGUAAGAGGCAUCAGAGGUGUAGUACAAGAGAUAGAA
# DNA 1: B5 DNA 1
# DNA 2: B5 DNA 2
# modifications: 5' amino modifier C6
# B8: sgRNA 316.7.9 ; 7.9 target (ssRNA ; dsDNA)
# RNA: B6 RNA with U11C, U24C, A29C, A87G
# DNA 1: B5 DNA 1
# DNA 2: B5 DNA 2
# modifications: 5' amino modifier C6
# Target: T1, CasX variant 515 (synthetic construct)
# T1 chain: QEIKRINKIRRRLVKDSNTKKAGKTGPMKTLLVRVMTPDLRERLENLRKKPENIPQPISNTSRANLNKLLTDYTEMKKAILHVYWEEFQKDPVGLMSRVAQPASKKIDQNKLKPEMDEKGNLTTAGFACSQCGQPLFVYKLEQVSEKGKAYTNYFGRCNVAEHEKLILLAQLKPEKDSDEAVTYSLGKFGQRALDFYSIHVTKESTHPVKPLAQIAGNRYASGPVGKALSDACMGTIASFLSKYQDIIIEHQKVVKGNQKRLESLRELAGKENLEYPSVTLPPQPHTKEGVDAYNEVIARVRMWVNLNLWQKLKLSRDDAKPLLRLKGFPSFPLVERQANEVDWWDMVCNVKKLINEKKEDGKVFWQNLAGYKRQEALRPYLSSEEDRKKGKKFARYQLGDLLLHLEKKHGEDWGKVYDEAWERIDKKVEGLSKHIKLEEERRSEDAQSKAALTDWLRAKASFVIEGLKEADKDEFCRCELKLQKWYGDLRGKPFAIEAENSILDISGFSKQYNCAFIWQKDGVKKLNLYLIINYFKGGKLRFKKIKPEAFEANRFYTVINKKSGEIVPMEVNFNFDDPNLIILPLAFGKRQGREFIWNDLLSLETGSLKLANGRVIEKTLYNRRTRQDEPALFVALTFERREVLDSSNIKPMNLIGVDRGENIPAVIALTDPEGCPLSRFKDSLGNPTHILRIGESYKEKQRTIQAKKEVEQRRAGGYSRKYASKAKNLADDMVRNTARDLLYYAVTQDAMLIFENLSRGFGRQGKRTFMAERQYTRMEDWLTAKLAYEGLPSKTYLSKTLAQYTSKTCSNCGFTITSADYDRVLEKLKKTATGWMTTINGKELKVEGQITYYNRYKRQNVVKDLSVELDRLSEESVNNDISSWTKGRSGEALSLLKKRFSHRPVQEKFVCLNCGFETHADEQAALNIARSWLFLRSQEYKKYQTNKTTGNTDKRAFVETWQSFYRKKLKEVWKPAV
# Assay: cleavage_in_vitro
row,Binder,activity
1,B1,0.0204 s⁻¹
2,B2,0.0851 s⁻¹
3,B3,0.0647 s⁻¹
4,B4,0.0534 s⁻¹
5,B5,0.135 s⁻¹
6,B6,0.172 s⁻¹
7,B7,0.17 s⁻¹
8,B8,0.141 s⁻¹
